Data on four molecules can be found in patent US20030092616A1, “STAT6 activation gene” (priority 2001, published 2003).

Sequences and labels used below:
B1: 423 (nucleic acid, listed as Homo sapiens)
chain: AAAAAAAAAGCTGGGAGCCGCCGCCCCCGCAGCTGCTGCCGCCGCCGCCAGGGCCCGGACTCGGACGCGTGGTAGCCCCAGGATGGGTGAGTTCAACGAGAAGAAGACAACATGTGGCACCGTTTGCCTCAAGTACCTGCTGTTTACCTACAATTGCTGCTTCTGGCTGGCTGGCCTGGCTGTCATGGCAGTGGGCATCTGGACGCTGGCCCTCAAGAGTGACTACATCAGCCTGCTGGCCTCAGGCACCTACCTGGCCACAGCCTACATCCTGGTGGTGGCGGGCACTGTCGTCATGGTGACTGGGGTCTTGGGCTGCTGCGCCACCTTCAAGGAGCGTCGGAACCTGCTGCGCCTGTACTTCATCCTGCTCCTCATCATCTTTCTGCTGGAGATCATCGCTGGTATCCTCGCCTACGCCTACTACCAGCAGCTGAACACGGAGCTCAAGGAGAACCTGAAGGACACCATGACCAAGCGCTACCACCAGCCGGGCCATGAGGCTGTGACCAGCGCTGTGGCAGCAACAACTCACAGGACTGGCGAGACAGTGAGTGGATCCGCTCACAGGAGGCCGGTGGCCGTGTGGTCCCAGACAGCTGCTGCAAGACGGTGGTGGCTCTTTGTGGGCAGCGAGACCATGCCTCCAACATCTACAAGGTGGAGGGCGGCTGCATCACCAAGTTGGAGACCTTCATCCAGGAGCACCTGAGGGTCATTGGGGCTGTGGGGATCGGCATTGCCTGTGTGCAGGTCTTTGGCATGATCTTCACGTGCTGCCTGTACAGGAGTCTCAAGCTGGAGCACTACTGACCCTGCCTTGGGCCTTGCTGCTGCTGCACCCAACTACTGAGCTGAGACCACTGAGTACCAGGGGCTGGGCTCCCTGATGACACCCACCCTGTGCCATCACCATAACCTCTGGGGACCCCAACCTCAGAGGCAGCTTCAAGTGCCTTTTGCTGCGCACCAATGCCCAGCAGGGGAGGTGAGGGGGGCTGGCGGGGCGAAGTTTGGGGGGTGTTTTGTGGGGCTCCCCAGACACACTCTCTGCCTGGTGGTCAGATGCAGGTTGGAAGGGGCCTTGCTGAGTGGCGCAAGGCCGAGCGTTCCCAGCAGGGGGAGAAACCCTTCACACCCCAGGCCCTTCAGGAACTGGGGCCTTGCCTTGCAGCCACATGGCCCCATCCCAGTTGGGGAAGCCAGGTGAGCTCTGACCCTTGGGCCTGGGCCTCTGCCCCTCCCAACCCAGCCCTCGTCTCCCTCGACAGCGCCCCTGCTGTCTTCCCCACCGCAGTCACCACCACCCGAAATGCCACGTGGTCACTGTGCACTGCCCTGTCCATGTGCCTCTGCGGGGCAGGGCCTTCCTGGTTTTGTTCACTGCTGTACCCAGATGCCTACAACCATCCCTGCCACATACAGGTGCTCAATAAACACTTGTAGAGCAGATGG
modifications: CDS (83)..(709)
B2: 455 (nucleic acid, listed as Homo sapiens)
chain: ATGGTGTCCTGGATGATCTCCAGAGCCGTGGTGCTGGTGTTTGGAATGCTTTATCCTGCATATTATTCATACAAAGCTGTGAAAACAAAAAACGTGAAGGAATATGTTCGATGGATGATGTACTGGATTGTTTTTGCTCTCTATACTGTGATTGAAACAGTAGCCGATCAAACAGTTGCTTGGTTTCCCCTGTACTATGAGCTGAAGATTGCTTTTGTCATATGGCTGCTTTCTCCCTATACCAAAGGAGCAAGTTTAATATATAGAAAATTCCTTCATCCACTTCTTTCTTCAAAGGAAAGGGAGATTGATGATTATATTGTACAAGCAAAGGAACGAGGCTATGAAACCATGGTAAACTTTGGACGGCAAGGTTTAAACCTTGCAGCTACTGCTGCTGTTACTGCAGCAGTAAAGAGCCAAGGAGCAATAACTGAACGTTTAAGAAGCTTCAGTATGCATGATTTAACAACTATCCAAGGTGATGAGCCTGTGGGACAAAGACCATACCAACCTCTACCAGAAGCAAAAAAGAAAAGTAAACCAGCCCCCAGTGAATCAGCAGGTTATGGAATTCCACTGAAAGACGGAGATGAGAAAACAGATGAAGAAGCAGAGGGGCCATATTCAGATAATGAGATGTTAACACACAAAGGGCTTCGAAGATCGCAAAGCATGAAATCTGTGAAAACCACCAAAGGCCGCAAAGAGGTGCGGTACGGGTCACTAAAATACAAAGTGAAGAAACGACCACAAGTGTATTTTTAGTCATCTACACGTCAAATATCCC
modifications: CDS (1)..(765)
B3: 177 (nucleic acid, listed as Homo sapiens)
chain: AAACGAAACGGTAACCAGCCCTGGGAAGCCCGCAAGAGGCCTCAGCGGTGGCCGTCCGAGCGCCGAGAGGTGAGGGTGCCCCCGCCTCACCTGCAGAGGGGCCGTTCCGGGCTCGAACCCGGCACCTTCCGGAAAATGGCGGCTGCCAGGCCCAGCCTGGGCCGAGTCCTCCCAGGATCCTCTGTCCTGTTCCTGTGTGACATGCAGGAGAAGTTCCGCCACAACATCGCCTACTTCCCACAGATCGTCTCAGTGGCTGCCCGCATGCTCAAGGTGGCCCGGCTGCTTGAGGTGCCAGTCATGCTGACGGAGCAGTACCCACAAGGCCTGGGCCCCACGGTGCCCGAGCTGGGGACTGAGGGCCTTCGGCCGCTGGCCAAGACCTGCTTCAGCATGGTGCCTGCCCTGCAGCAGGAGCTGGACAGTCGGCCCCAGCTGTGCTCTGTGCTGCTCTGTGGCATTGAGGCACAGGCCTGCATCTTGAACACGACCCTGGACCTCCTAGACCGGGGGCTGCAGGTCCATGTGGTGGTGGACGCCTGCTCCTCACGCAGCCAGGTGGACCGGCTGGTGGCTCTGGCCCGCATGAGACAGAGTGGTGCCTTCCTCTCCACCAGCGAAGGGCTCATTCTGCAGCTTGTGGGCGATGCCGTCCACCCCCAGTTCAAGGAGATCCAGAAACTCATCAAGGAGCCCGCCCCAGACAGCGGACTGCTGGGCCTCTTCCAAGGCCAGCTGCTCCCGGAAATGCAAATGAGACTCCTGGAAACTGGGTGGGAATTGGCTGAGCCGAGATGGAGGCGGGGCTCGGCCCCGGGCCACTTCACGGGGCGGGAAGGGGAGGGGAAGAAGAGTCTCAGACTGTGGGACACGGACTCGCAGAATAAACATATATGTGGCTGTG
modifications: CDS (136)..(903)
B4: 159 (nucleic acid, listed as Homo sapiens)
chain: CCGGCGGGCTGGTGAGGAATGGAGCCGGTAGGCTGCTGCGGCGAGTGCCGCGGCTCCTCCGTAGACCCGCGGAGCACCTTCGTGTTGAGTAACCTGGCGGAGGTGGTGGAGCGTGTGCTCACCTTCCTGCCCGCCAAGGCGTTGCTGCGGGTGGCCTGCGTGTGCCGCTTATGGAGGGAGTGTGTGCGCAGAGTATTGCGGACCCATCGGAGCGTAACCTGGATCTCCGCAGGCCTGGCGGAGGCCGGCCACCTGGAGGGGCATTGCTTGGTTCGCGTGGTAGCAGAGGAGCTTGAGAATGTTCGCATCTTACCACATACAGTTCTTTACATGGCTGATTCAGAAACTTTCATTAGTCTGGAAGAGTGTCGTGGCCATAAGAGAGCAAGGAAAAGAACTAGTATGGAAACAGCACTTGCCCTTGAGAAGCTATTCCCCAAACAATGCCAAGTCCTTGGGATTGTGACCCCAGGAATTGTAGTGACTCCAATGGGATCAGGTAGCAATCGACCTCAGGAAATAGAAATTGGAGAATCTGGTTTTGCTTTATTATTCCCTCAAATTGAAGGAATAAAAATACAACCCTTTCATTTTATTAAGGATCCAAAGAATTTAACATTAGAAAGACATCAACTCACTGAAGTAGGTCTTTTAGATAACCCTGAACTTCGTGTGGTCCTTGTCTTTGGTTATAATTGCTGTAAGGTGGGAGCCAGTAATTATCTGCAGCAAGTAGTCAGCACTTTCAGTGATATGAATATCATCTTGGCTGGAGGCCAGGTGGACAACCTGTCATCACTGACTTCTGAAAAGAACCCTCTGGATATTGATGCCTCGGGTGTGGTTGGACTGTCATTTAGTGGACACCGAATCCAGAGTGCCACTGTGCTCCTCAACGAGGACGTCAGTGATGAGAAGACTGCTGAGGCTGCGATGCAGCGCCTCAAAGCGGCCAACATTCCAGAGCATAACACCATTGGCTTCATGTTTGCATGCGTTGGCAGGGGCTTTCAGTATTACAGAGCCAAGGGGAATGTTGAGGCTGATGCATTTAGAAAGTTTTTTCCTAGTGTTCCCTTATTCGGCTTCTTTGGAAATGGAGAAATTGGATGTGATCGGATAGTCACTGGGAACTTTATATTGAGGAAATGTAATGAGGTAAAAGATGATGATCTGTTTCATAGCTATACAACAATAATGGCACTCATACATCTGGGGTCATCTAAATAATAATTAAAGTGGCTTTCATAATATGT
modifications: CDS (19)..(1227)

In the series the test system is STAT6. In words: Screening of full-length cDNA clones for promotion of STAT6 activation (luciferase reporter N4×8-luc). The note with it: NIH3T3 cells cotransfected with N4×8-luc reporter and cDNA plasmid; 48 h culture, then mouse IL-4 0.5 ng/ml for 6 h. In kind it is cell-based. The procedure, abridged:
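NIH3T3 cells cotransfected with STAT6-responsive N4×8-luc reporter (100 ng) and full-length cDNA, cultured 48 h, then given mouse IL-4 at 0.5 ng/ml final for 6 h. Luciferase activity compared with reporter plus null-vector control.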
Regarding B1, the “Activity = (luciferase activity of the gene of each SEQ ID NO:)/(luciferase activity of pME18S-FL3)” value is recorded as 4.8. Under B2 stands 3.3; under B3, 22.6. Under B4 stands 19.1.
